From article PMC7144919
Like-named read-outs stand apart in the source and are kept apart here.

Legend:
Hfq Core [1] = molecular target: T1, Hfq Core (Escherichia coli, UniProt P0A6X3 2-69); test: fluorescence polarization
Hfq F42W [2] = molecular target: T2, Hfq F42W (Escherichia coli, UniProt P0A6X3 2-69, F42W); test: tryptophan fluorescence quenching
Hfq WT (Table 3) [3] = molecular target: T3, Hfq WT (Table 3) (Escherichia coli, UniProt P0A6X3 2-69); test: fluorescence polarization
Hfq WT (Table 3) [4] = molecular target: T3, Hfq WT (Table 3); test: fluorescence polarization; remark: listed apart in the source
Hfq(2-69:R16A) = Hfq(2-69:R16A) (Escherichia coli, UniProt P0A6X3 2-69, R16A); test: fluorescence polarization
Hfq(2-69:Q41A) = Hfq(2-69:Q41A) (Escherichia coli, UniProt P0A6X3 2-69, Q41A); test: fluorescence polarization
Hfq(2-69:R16A/R17A) = Hfq(2-69:R16A/R17A) (Escherichia coli, UniProt P0A6X3 2-69, R16A;R17A); test: fluorescence polarization
Hfq(2-69:N13A) = Hfq(2-69:N13A) (Escherichia coli, UniProt P0A6X3 2-69, N13A); test: fluorescence polarization
Hfq(2-69:Q41E) = Hfq(2-69:Q41E) (Escherichia coli, UniProt P0A6X3 2-69, Q41E); test: fluorescence polarization
Hfq Core [5] = molecular target: T1, Hfq Core; test: fluorescence polarization; remark: listed apart in the source
Hfq full length WT = Hfq full length WT (Escherichia coli, UniProt P0A6X3 2-102); test: fluorescence polarization
Sa Hfq = Sa Hfq (Staphylococcus aureus, UniProt A0A0H3JV59 1-77); test: fluorescence polarization
Hfq F42W [6] = molecular target: T2, Hfq F42W; test: tryptophan fluorescence quenching; remark: listed apart in the source

B1: 3-base A-tract DNA (dsDNA)
DNA 1: CGGCAAACGAAACGGCAAACGAAACGGCAAACGAAA
DNA 2: TTTCGTTTGCCGTTTCGTTTGCCGTTTCGTTTGCCG
**Q.** Which Kd (Hfq Core [1]) does the source give for B1 here?
**A.** The Kd was 19.4 ± 6 nM.

**Q.** What does the source list for CAUGAUUCUUAUACGUACGACGGAAGAUGAGAAUUAUGGU (structured_RNA) [Hairpin 2]?
**A.** binding result (Hfq F42W [2]): binds; Kd (Hfq WT (Table 3) [3]): 61.5 ± 18.3 nM

B2: RacA DNA 14 bp (dsDNA)
DNA 1: TGACGCCGGCGTCA
DNA 2: TGACGCCGGCGTCA
**Q.** With B2 as the binder, how does the Kd (Hfq Core [1]) read?
**A.** The Kd was 16.2 ± 3.7 nM.

**Q.** Does AAAAAAAAAAAAAAAAAAAAAAAAAAA (ssRNA) [A27] bind (Hfq WT (Table 3) [4])?
**A.** Result: binds

B3: xtal DNA, 30 bp with three 6-bp A-tracts (dsDNA)
DNA 1: CGGCAAAAAACGGCAAAAAACGGCAAAAAA
DNA 2: TTTTTTGCCGTTTTTTGCCGTTTTTTGCCG
**Q.** Does B3 bind (Hfq F42W [2])?
**A.** Result: binds

**Q.** What about the Kd (Hfq Core [1]) of the same binder?
**A.** The Kd was 4.9 ± 2.4 nM.

**Q.** What about the Kd (Hfq(2-69:R16A)) of the same binder?
**A.** Its Kd is 34.1 ± 7 nM.

**Q.** And the Kd (Hfq(2-69:Q41A))?
**A.** Its Kd is 300 ± 33.6 nM.

**Q.** And the Kd (Hfq(2-69:R16A/R17A))?
**A.** The Kd was 66.8 ± 10.6 nM.

**Q.** What about the Kd (Hfq(2-69:N13A)) of the same binder?
**A.** Its Kd is 6 ± 2.3 nM.

**Q.** What about the Kd (Hfq(2-69:Q41E)) of the same binder?
**A.** Its Kd is 47.1 ± 4.7 nM.

**Q.** And the Kd (Hfq Core [5])?
**A.** The Kd was 94 ± 8 nM.

**Q.** What about the Kd (Hfq full length WT) of the same binder?
**A.** The Kd was 175 ± 4.5 nM.

**Q.** What about the Kd (Sa Hfq) of the same binder?
**A.** The Kd was 6.4 µM.

**Q.** Does AUUUUUUCGAAUCGAAAGGUUCA (structured_RNA) [site A] bind (Hfq F42W [6])?
**A.** Result: binds

**Q.** What about the Kd (Hfq WT (Table 3) [3]) of the same binder?
**A.** Its Kd is 22.7 ± 1.5 nM.
